Changes are numbered by the printed parent chain. Numbers in names are those of the source. Where two headings read alike, the source gives them in different places. Each block holds one binder with its values, some of them ahead of it.
What was measured:
Assay in all cases: SPR single-cycle, supernatant IgG captured
His-tagged CEACAM1 [1] = biological target: T1, His-tagged CEACAM1 (human, UniProt P13688 35-428)
T1 construct: 45 kDa SPR analyte; also called CEACAM1-HIS; CEACAM1 analyte
T1 sequence: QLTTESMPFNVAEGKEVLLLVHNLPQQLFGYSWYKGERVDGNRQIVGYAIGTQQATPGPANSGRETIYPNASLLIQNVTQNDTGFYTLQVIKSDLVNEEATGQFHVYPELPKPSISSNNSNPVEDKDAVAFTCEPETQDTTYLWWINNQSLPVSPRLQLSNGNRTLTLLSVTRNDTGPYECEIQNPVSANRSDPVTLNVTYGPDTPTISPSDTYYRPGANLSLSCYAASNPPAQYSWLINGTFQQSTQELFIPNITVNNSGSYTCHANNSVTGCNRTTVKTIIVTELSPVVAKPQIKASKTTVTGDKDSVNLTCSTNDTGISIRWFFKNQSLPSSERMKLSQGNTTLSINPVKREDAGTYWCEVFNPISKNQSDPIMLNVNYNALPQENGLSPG
Method: (§1) In order to assess the binding of the humanized, affinity matured reformatted lead IgGs, single-cycle kinetics analysis was performed on crude supernatants using a Biacore T200 running Biacore T200 Control Software V2.0.1 and Biacore T200 Evaluation Software V3.0. Antibodies were diluted in HBS-P+ to a final concentration of 0.5 μg/ml. At the start of each cycle, antibodies were loaded onto Fc2, Fc3 and Fc4 of the Protein A chip. IgGs were captured at a flow rate of 10 μl/min to give an immobilisation level (RL) of ˜100 RU (a level calculated to obtain a Rₘₐₓ of ˜50-150 RU once the analyte is bound). The surface was then allowed to stabilize. Single-cycle kinetics data was obtained with CEACAM1 as the analyte at a flow rate of 80 μl/min to minimize any potential mass transfer effects. Multiple repeats with the parent (VH1/Vκ8 S29A) antibody were performed to check the stability of the surface and analyte over the kinetic cycles. The signal from the reference channel Fc1 (no antibody) was subtracted from that of Fc2, Fc3 and Fc4 to correct for differences in non-specific binding to the reference surface. A three point, two-fold dilution range from 70 nM to 280 nM CEACAM1 without regeneration between each concentration was used. The signal from each antibody blank run (no CEACAM1) was subtracted to correct for differences in surface stability. The association phase for the three injections of increasing concentrations of CEACAM1 was monitored for 80 seconds each time and a single dissociation phase was measured for 150 seconds following the last injection of CEACAM1. Regeneration of the Protein A surface was conducted using two injections of 10 mM glycine-HCL pH 1.5 followed by a stabilization period of 250 seconds.

His-tagged CEACAM1 [2] = biological target: T1, His-tagged CEACAM1; remark: listed apart in the source
Method: as §1

His-tagged CEACAM1 [3] = biological target: T1, His-tagged CEACAM1; remark: listed apart in the source
In short: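 On a Biacore T200 run at 25° C in HBS-P+ (pH 7.4), IgG captured on Protein A was probed with His-tagged CEACAM1 by single-cycle surface plasmon resonance. Fitted Kon, koff and Kd gave a relative KD referenced to the parent antibody from the same experiment. The IgG came from filtered, ELISA-quantified supernatants of HEK EBNA cells transiently transfected with PEI and harvested after 5-7 days.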

Kd (His-tagged CEACAM1 [1]): 300 nM | koff (His-tagged CEACAM1 [1]): 0.024 s⁻¹ | kon (His-tagged CEACAM1 [1]): 81000 M⁻¹ s⁻¹ | relative KD to parent (His-tagged CEACAM1 [1]): 1.9
B1: 8H3_9E5/Vκ8 S29A (antibody, IgG4, V domains shown)
VH: EVQLLESGGGLVQPGGSLRLSCAASGFIFSSHGMSWVRQAPGKGLEWVATISSGGTYTYYPDSVKGRFTISRDNSKNTLYLQMNSLKAEDTAMYYCARHGFDYFPYWFAHWGQGTLVTVSS
VL: EIVLTQSPATLSLSPGERATLSCRANSAVSYMYWYQQKPGQAPRPWIYLTSNRATGVPARFSGSGSGTDYTLTISSLEPEDFAVYYCQQWSSNPPTFGQGTKLEIK
notes: IgG4 (S241P), kappa

Kd (His-tagged CEACAM1 [2]): 100 nM | koff (His-tagged CEACAM1 [2]): 0.043 s⁻¹ | kon (His-tagged CEACAM1 [2]): 430000 M⁻¹ s⁻¹ | relative KD to parent (His-tagged CEACAM1 [2]): 6.2 | Kd (His-tagged CEACAM1 [3]): 450 nM | koff (His-tagged CEACAM1 [3]): 0.057 s⁻¹ | kon (His-tagged CEACAM1 [3]): 130000 M⁻¹ s⁻¹ | relative KD to parent (His-tagged CEACAM1 [3]): 1.2
B2: VH1/CP08D02 (antibody, IgG4, V domains shown)
VH: B1 VH with G100D, F104D, P105A, Y106A, H110Y
VL: B1 VL with S91T, N93F
notes: IgG4 (S241P), kappa; also called Parent VH/CP08D02

Kd (His-tagged CEACAM1 [3]): 140 nM | koff (His-tagged CEACAM1 [3]): 0.02 s⁻¹ | kon (His-tagged CEACAM1 [3]): 140000 M⁻¹ s⁻¹ | relative KD to parent (His-tagged CEACAM1 [3]): 3.9
B3: CP09C02/CP08E01 (antibody, IgG4, V domains shown)
VH: B1 VH with G26E, I28T, S31D, G33A, F104D, P105A, Y106A, H110Y
VL: B1 VL with S91T, S92T, N93F
notes: IgG4 (S241P), kappa

Kd (His-tagged CEACAM1 [2]): 260 nM | koff (His-tagged CEACAM1 [2]): 0.039 s⁻¹ | kon (His-tagged CEACAM1 [2]): 150000 M⁻¹ s⁻¹ | relative KD to parent (His-tagged CEACAM1 [2]): 2.4 | Kd (His-tagged CEACAM1 [3]): 300 nM | koff (His-tagged CEACAM1 [3]): 0.052 s⁻¹ | kon (His-tagged CEACAM1 [3]): 170000 M⁻¹ s⁻¹ | relative KD to parent (His-tagged CEACAM1 [3]): 1.8
B4: CP09B03/Vκ8 S29A (antibody, IgG4, V domains shown)
VH: B1 VH with I28T, S30N, S31A, G33A, M34I, G100D, F104D, P105A, Y106A, H110Y
VL: B1 VL
notes: IgG4 (S241P), kappa

Kd (His-tagged CEACAM1 [2]): 88 nM | koff (His-tagged CEACAM1 [2]): 0.017 s⁻¹ | kon (His-tagged CEACAM1 [2]): 200000 M⁻¹ s⁻¹ | relative KD to parent (His-tagged CEACAM1 [2]): 7.1 | Kd (His-tagged CEACAM1 [3]): 170 nM | koff (His-tagged CEACAM1 [3]): 0.019 s⁻¹ | kon (His-tagged CEACAM1 [3]): 110000 M⁻¹ s⁻¹ | relative KD to parent (His-tagged CEACAM1 [3]): 3.3
B5: CP09C02/Vκ8 S29A (antibody, IgG4, V domains shown)
VH: B1 VH with G26E, I28T, S31D, G33A, F104D, P105A, Y106A, H110Y
VL: B1 VL
notes: IgG4 (S241P), kappa

Kd (His-tagged CEACAM1 [2]): 140 nM | koff (His-tagged CEACAM1 [2]): 0.034 s⁻¹ | kon (His-tagged CEACAM1 [2]): 240000 M⁻¹ s⁻¹ | relative KD to parent (His-tagged CEACAM1 [2]): 4.4 | Kd (His-tagged CEACAM1 [3]): 230 nM | koff (His-tagged CEACAM1 [3]): 0.034 s⁻¹ | kon (His-tagged CEACAM1 [3]): 150000 M⁻¹ s⁻¹ | relative KD to parent (His-tagged CEACAM1 [3]): 2.4
B6: VH1/CP08E05 (antibody, IgG4, V domains shown)
VH: B1 VH with G100D, F104D, P105A, Y106A, H110Y
VL: B1 VL with S91T, S92T
notes: IgG4 (S241P), kappa; also called Parent VH/CP08E05

Kd (His-tagged CEACAM1 [3]): 140 nM | koff (His-tagged CEACAM1 [3]): 0.022 s⁻¹ | kon (His-tagged CEACAM1 [3]): 160000 M⁻¹ s⁻¹ | relative KD to parent (His-tagged CEACAM1 [3]): 4
B7: CP09C02/CP08D02 (antibody, IgG4, V domains shown)
VH: B1 VH with G26E, I28T, S31D, G33A, F104D, P105A, Y106A, H110Y
VL: B1 VL with S91T, N93F
notes: IgG4 (S241P), kappa

Kd (His-tagged CEACAM1 [2]): 280 nM | koff (His-tagged CEACAM1 [2]): 0.11 s⁻¹ | kon (His-tagged CEACAM1 [2]): 400000 M⁻¹ s⁻¹ | relative KD to parent (His-tagged CEACAM1 [2]): 2.2 | Kd (His-tagged CEACAM1 [3]): 280 nM | koff (His-tagged CEACAM1 [3]): 0.029 s⁻¹ | kon (His-tagged CEACAM1 [3]): 100000 M⁻¹ s⁻¹ | relative KD to parent (His-tagged CEACAM1 [3]): 2
B8: VH1/CP08F05 (antibody, IgG4, V domains shown)
VH: B1 VH with G100D, F104D, P105A, Y106A, H110Y
VL: B1 VL with S91T
notes: IgG4 (S241P), kappa; also called Parent VH/CP08F05

Kd (His-tagged CEACAM1 [2]): 170 nM | koff (His-tagged CEACAM1 [2]): 0.054 s⁻¹ | kon (His-tagged CEACAM1 [2]): 330000 M⁻¹ s⁻¹ | relative KD to parent (His-tagged CEACAM1 [2]): 3.7 | Kd (His-tagged CEACAM1 [3]): 450 nM | koff (His-tagged CEACAM1 [3]): 0.053 s⁻¹ | kon (His-tagged CEACAM1 [3]): 120000 M⁻¹ s⁻¹ | relative KD to parent (His-tagged CEACAM1 [3]): 1.2
B9: VH1/CP08E01 (antibody, IgG4, V domains shown)
VH: B1 VH with G100D, F104D, P105A, Y106A, H110Y
VL: B1 VL with S91T, S92T, N93F
notes: IgG4 (S241P), kappa; also called Parent VH/CP08E01

Kd (His-tagged CEACAM1 [1]): 210 nM | koff (His-tagged CEACAM1 [1]): 0.018 s⁻¹ | kon (His-tagged CEACAM1 [1]): 88000 M⁻¹ s⁻¹ | relative KD to parent (His-tagged CEACAM1 [1]): 2.7
B10: 8H3_9C2 (CDR1)/Vκ8 S29A (antibody, IgG4, V domains shown)
VH: B1 VH with G26E, I28T, S31D, G33A, G100D
VL: B1 VL
notes: IgG4 (S241P), kappa

Kd (His-tagged CEACAM1 [3]): 200 nM | koff (His-tagged CEACAM1 [3]): 0.02 s⁻¹ | kon (His-tagged CEACAM1 [3]): 100000 M⁻¹ s⁻¹ | relative KD to parent (His-tagged CEACAM1 [3]): 2.8
B11: CP09E05/CP08E05 (antibody, IgG4, V domains shown)
VH: B1 VH with F104D, P105A, Y106A, H110Y
VL: B1 VL with S91T, S92T
notes: IgG4 (S241P), kappa

Kd (His-tagged CEACAM1 [3]): 140 nM | koff (His-tagged CEACAM1 [3]): 0.018 s⁻¹ | kon (His-tagged CEACAM1 [3]): 130000 M⁻¹ s⁻¹ | relative KD to parent (His-tagged CEACAM1 [3]): 3.9
B12: CP09C02/CP08G09 (antibody, IgG4, V domains shown)
VH: B1 VH with G26E, I28T, S31D, G33A, F104D, P105A, Y106A, H110Y
VL: B1 VL with S91T, S92A, N93F
notes: IgG4 (S241P), kappa

Reference: patent US20250074980A1 (BRIGHAM AND WOMEN S HOSPITAL, published 2025)
